The results in this text go back to publication PMC8405949 (2021).

Test in all cases: SPR
A general note: SPR reads the build-up and loss of mass on a sensor chip optically.

Experiment [1] deals with XRCC1 cancer-associated variant R194W (human, UniProt P18887 1-633, R194W).
For experiment [2], the target named is XRCC1 cancer-associated variant Y576S (human, UniProt P18887 1-633, Y576S).
Experiment [3] has as its target XRCC1 cancer-associated variant P161L (human, UniProt P18887 1-633, P161L).
Experiment [4] addresses XRCC1 cancer-associated variant R280H (human, UniProt P18887 1-633, R280H).
The target in experiment [5] is XRCC1 cerebellar ataxia-related K431N mutant (human, UniProt P18887 1-633, K431N).

B1: Aprataxin (APTX), human wild-type full-length (enzyme)
chain: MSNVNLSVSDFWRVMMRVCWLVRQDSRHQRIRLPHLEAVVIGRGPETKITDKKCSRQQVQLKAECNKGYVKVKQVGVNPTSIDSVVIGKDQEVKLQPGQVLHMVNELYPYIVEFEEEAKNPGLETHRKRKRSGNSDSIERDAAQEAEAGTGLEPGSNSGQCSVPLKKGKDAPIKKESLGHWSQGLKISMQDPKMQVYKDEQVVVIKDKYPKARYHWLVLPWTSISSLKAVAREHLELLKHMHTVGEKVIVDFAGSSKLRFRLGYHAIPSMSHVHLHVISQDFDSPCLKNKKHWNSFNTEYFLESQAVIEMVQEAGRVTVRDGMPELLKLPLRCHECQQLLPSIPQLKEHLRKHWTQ
Take B1: the Kd came out at 686 nM in experiment [1]; 422 nM in experiment [2]; 320 nM in experiment [3]; 569 nM in experiment [4]; 301 nM in experiment [5].

B2: DNA ligase IIIα, human wild-type full-length (1–922 aa) (enzyme)
chain: MAEQRFCVDYAKRGTAGCKKCKEKIVKGVCRIGKVVPNPFSESGGDMKEWYHIKCMFEKLERARATTKKIEDLTELEGWEELEDNEKEQITQHIADLSSKAAGTPKKKAVVQAKLTTTGQVTSPVKGASFVTSTNPRKFSGFSAKPNNSGEAPSSPTPKRSLSSSKCDPRHKDCLLREFRKLCAMVADNPSYNTKTQIIQDFLRKGSAGDGFHGDVYLTVKLLLPGVIKTVYNLNDKQIVKLFSRIFNCNPDDMARDLEQGDVSETIRVFFEQSKSFPPAAKSLLTIQEVDEFLLRLSKLTKEDEQQQALQDIASRCTANDLKCIIRLIKHDLKMNSGAKHVLDALDPNAYEAFKASRNLQDVVERVLHNAQEVEKEPGQRRALSVQASLMTPVQPMLAEACKSVEYAMKKCPNGMFSEIKYDGERVQVHKNGDHFSYFSRSLKPVLPHKVAHFKDYIPQAFPGGHSMILDSEVLLIDNKTGKPLPFGTLGVHKKAAFQDANVCLFVFDCIYFNDVSLMDRPLCERRKFLHDNMVEIPNRIMFSEMKRVTKALDLADMITRVIQEGLEGLVLKDVKGTYEPGKRHWLKVKKDYLNEGAMADTADLVVLGAFYGQGSKGGMMSIFLMGCYDPGSQKWCTVTKCAGGHDDATLARLQNELDMVKISKDPSKIPSWLKVNKIYYPDFIVPDPKKAAVWEITGAEFSKSEAHTADGISIRFPRCTRIRDDKDWKSATNLPQLKELYQLSKEKADFTVVAGDEGSSTTGGSSEENKGPSGSAVSRKAPSKPSASTKKAEGKLSNSNSKDGNMQTAKPSAMKVGEKLATKSSPVKVGEKRKAADETLCQTKVLLDIFTGVRLYLPPSTPDFSRLRRYFVAFDGDLVQEFDMTSATHVLGSRDKNPAAQQVSPEWIWACIRKRRLVAPC
Consider B2, for which the Kd was found to be 44.9 nM in experiment [1], 50.4 nM in experiment [2], 37.3 nM in experiment [3] and 43.6 nM in experiment [4].

One may read the Kd as a measure of binding affinity in units of concentration. The low end stands for higher affinity, the high end for lower affinity.
